# Laboratory results reported in patent US20200199204A1 (UNITED STATES OF AMERICA AS REPRESENTED BY THE SECRETARY …, published 2020).
# B1: CAP256-VRC26.03 (antibody, V domains shown)
# VH: EVQLVESGGGVVQPGKSLRLSCAASRFSFNRYGMHWVRQAPGKGLEWVAAISYDGTDKYHADKVWGRFTISRDNSKNTLYLQMNSLRAEDTALYYCAKDLREDECEEWWSDYYDFGKQLPCRKSRGVAGIFDGWGQGTMVTVSS
# VL: QSVLTQPPSVSAAPGQKVTISCSGSSSNIGNNFVSWYQQRPGTAPKILIYENNKRPSETPDRFSGSKSGTSATLAITGLQTADEAEYYCATWSASLSSARVFGTGTRITVLG
# What was measured:
# Assay in all cases: cell-based or functional assay
# HIV-1 Env of 6535.3 = HIV-1 Env of 6535.3 (HIV-1)
# HIV-1 Env of CAP256.SU = HIV-1 Env of CAP256.SU (HIV-1)
# HIV-1 Env of KER2008.12 = HIV-1 Env of KER2008.12 (HIV-1)
# HIV-1 Env of TRJO.58 = HIV-1 Env of TRJO.58 (HIV-1)
# HIV-1 Env of DU422.01 = HIV-1 Env of DU422.01 (HIV-1)
# HIV-1 Env of Q461.e2 = HIV-1 Env of Q461.e2 (HIV-1)
# HIV-1 Env of CAP244.D3 = HIV-1 Env of CAP244.D3 (HIV-1)
# HIV-1 Env of ZM249.1 = HIV-1 Env of ZM249.1 (HIV-1)
# HIV-1 Env of CNE3 = HIV-1 Env of CNE3 (HIV-1)
# HIV-1 Env of ZM214.15 = HIV-1 Env of ZM214.15 (HIV-1)
# HIV-1 Env of TRO.11 = HIV-1 Env of TRO.11 (HIV-1)
# HIV-1 Env of CAP256.PI = HIV-1 Env of CAP256.PI (HIV-1)
# HIV-1 Env of 3016.V5.c36 = HIV-1 Env of 3016.V5.c36 (HIV-1)
# HIV-1 Env of Q769.d22 = HIV-1 Env of Q769.d22 (HIV-1)
# HIV-1 Env of ZM135.10a = HIV-1 Env of ZM135.10a (HIV-1)
# HIV-1 Env of AC10.29 = HIV-1 Env of AC10.29 (HIV-1)
# HIV-1 Env of KER2018.11 = HIV-1 Env of KER2018.11 (HIV-1)
# HIV-1 Env of THRO.18 = HIV-1 Env of THRO.18 (HIV-1)
# HIV-1 Env of ZM233.6 = HIV-1 Env of ZM233.6 (HIV-1)
# HIV-1 Env of 6405.v4.c34 = HIV-1 Env of 6405.v4.c34 (HIV-1)
# HIV-1 Env of Q842.d12 = HIV-1 Env of Q842.d12 (HIV-1)
# HIV-1 Env of ZM53.12 = HIV-1 Env of ZM53.12 (HIV-1)
# HIV-1 Env of PVO.04 = HIV-1 Env of PVO.04 (HIV-1)
# HIV-1 Env of 0260.v5.c36 = HIV-1 Env of 0260.v5.c36 (HIV-1)
# HIV-1 Env of 191821.E6.1 = HIV-1 Env of 191821.E6.1 (HIV-1)
# HIV-1 Env of TH976.17 = HIV-1 Env of TH976.17 (HIV-1)
# HIV-1 Env of ZM109.4 = HIV-1 Env of ZM109.4 (HIV-1)
# HIV-1 Env of UG037.8 = HIV-1 Env of UG037.8 (HIV-1)
# HIV-1 Env of DU172.17 = HIV-1 Env of DU172.17 (HIV-1)
# HIV-1 Env of CM244.ec1 = HIV-1 Env of CM244.ec1 (HIV-1)
# HIV-1 Env of REJO.67 = HIV-1 Env of REJO.67 (HIV-1)
# HIV-1 Env of RW020.2 = HIV-1 Env of RW020.2 (HIV-1)
# HIV-1 Env of Q259.d2.17 = HIV-1 Env of Q259.d2.17 (HIV-1)
# HIV-1 Env of WITO.33 = HIV-1 Env of WITO.33 (HIV-1)
# HIV-1 Env of Q23.17 = HIV-1 Env of Q23.17 (HIV-1)
# HIV-1 Env of C1080.c3 = HIV-1 Env of C1080.c3 (HIV-1)
# HIV-1 Env of RHPA.7 = HIV-1 Env of RHPA.7 (HIV-1)
# HIV-1 Env of CAP210.E8 = HIV-1 Env of CAP210.E8 (HIV-1)
# HIV-1 Env of DU156.12 = HIV-1 Env of DU156.12 (HIV-1)
# HIV-1 Env of 96ZM651.02 = HIV-1 Env of 96ZM651.02 (HIV-1)
# HIV-1 Env of MB539.2B7 = HIV-1 Env of MB539.2B7 (HIV-1)
# HIV-1 Env of CAP45.G3 = HIV-1 Env of CAP45.G3 (HIV-1)
# HIV-1 Env of BG505.w6m = HIV-1 Env of BG505.w6m (HIV-1)
# HIV-1 Env of SC422.8 = HIV-1 Env of SC422.8 (HIV-1)
# HIV-1 Env of CAAN.A2 = HIV-1 Env of CAAN.A2 (HIV-1)
# HIV-1 Env of QH0692.42 = HIV-1 Env of QH0692.42 (HIV-1)
# HIV-1 Env of ZM197.7 = HIV-1 Env of ZM197.7 (HIV-1)
# HIV-1 Env of MB201 = HIV-1 Env of MB201 (HIV-1)
# HIV-1 Env of Q168.a2 = HIV-1 Env of Q168.a2 (HIV-1)
binder,measurement,setting,value
B1,neutralization IC50,HIV-1 Env of 6535.3,> 50 µg/mL
same,neutralization IC50,HIV-1 Env of CAP256.SU,4 ng/mL
same,neutralization IC50,HIV-1 Env of KER2008.12,> 50 µg/mL
same,neutralization IC50,HIV-1 Env of TRJO.58,> 50 µg/mL
same,neutralization IC50,HIV-1 Env of DU422.01,0.134 µg/mL
same,neutralization IC50,HIV-1 Env of Q461.e2,> 50 µg/mL
same,neutralization IC50,HIV-1 Env of CAP244.D3,> 50 µg/mL
same,neutralization IC50,HIV-1 Env of ZM249.1,0.039 µg/mL
same,neutralization IC50,HIV-1 Env of CNE3,> 50 µg/mL
same,neutralization IC50,HIV-1 Env of ZM214.15,1.5 µg/mL
same,neutralization IC50,HIV-1 Env of TRO.11,> 50 µg/mL
same,neutralization IC50,HIV-1 Env of CAP256.PI,> 50 µg/mL
same,neutralization IC50,HIV-1 Env of 3016.V5.c36,0.118 µg/mL
same,neutralization IC50,HIV-1 Env of Q769.d22,> 50 µg/mL
same,neutralization IC50,HIV-1 Env of ZM135.10a,> 50 µg/mL
same,neutralization IC50,HIV-1 Env of AC10.29,> 50 µg/mL
same,neutralization IC50,HIV-1 Env of KER2018.11,3 ng/mL
same,neutralization IC50,HIV-1 Env of THRO.18,> 50 µg/mL
same,neutralization IC50,HIV-1 Env of ZM233.6,0.032 µg/mL
same,neutralization IC50,HIV-1 Env of 6405.v4.c34,> 50 µg/mL
same,neutralization IC50,HIV-1 Env of Q842.d12,> 50 µg/mL
same,neutralization IC50,HIV-1 Env of ZM53.12,8 ng/mL
same,neutralization IC50,HIV-1 Env of PVO.04,> 50 µg/mL
same,neutralization IC50,HIV-1 Env of 0260.v5.c36,> 50 µg/mL
same,neutralization IC50,HIV-1 Env of 191821.E6.1,> 50 µg/mL
same,neutralization IC50,HIV-1 Env of TH976.17,> 50 µg/mL
same,neutralization IC50,HIV-1 Env of ZM109.4,> 50 µg/mL
same,neutralization IC50,HIV-1 Env of UG037.8,> 50 µg/mL
same,neutralization IC50,HIV-1 Env of DU172.17,> 50 µg/mL
same,neutralization IC50,HIV-1 Env of CM244.ec1,3 ng/mL
same,neutralization IC50,HIV-1 Env of REJO.67,> 50 µg/mL
same,neutralization IC50,HIV-1 Env of RW020.2,> 50 µg/mL
same,neutralization IC50,HIV-1 Env of Q259.d2.17,0.014 µg/mL
same,neutralization IC50,HIV-1 Env of WITO.33,> 50 µg/mL
same,neutralization IC50,HIV-1 Env of Q23.17,> 50 µg/mL
same,neutralization IC50,HIV-1 Env of C1080.c3,0.119 µg/mL
same,neutralization IC50,HIV-1 Env of RHPA.7,> 50 µg/mL
same,neutralization IC50,HIV-1 Env of CAP210.E8,0.011 µg/mL
same,neutralization IC50,HIV-1 Env of DU156.12,0.117 µg/mL
same,neutralization IC50,HIV-1 Env of 96ZM651.02,> 50 µg/mL
same,neutralization IC50,HIV-1 Env of MB539.2B7,> 50 µg/mL
same,neutralization IC50,HIV-1 Env of CAP45.G3,10.7 µg/mL
same,neutralization IC50,HIV-1 Env of BG505.w6m,4.76 µg/mL
same,neutralization IC50,HIV-1 Env of SC422.8,> 50 µg/mL
same,neutralization IC50,HIV-1 Env of CAAN.A2,> 50 µg/mL
same,neutralization IC50,HIV-1 Env of QH0692.42,> 50 µg/mL
same,neutralization IC50,HIV-1 Env of ZM197.7,0.16 µg/mL
same,neutralization IC50,HIV-1 Env of MB201,> 50 µg/mL
same,neutralization IC50,HIV-1 Env of Q168.a2,> 50 µg/mL
